Assay results reported in publication PMC4323627 (Journal of molecular biology, 2014).

T1: human Shq1 CS domain without 6XHis-tag (hCS) (human, UniProt Q6PI26 1-96, uniformly 15N-labelled)
T1 sequence (looked up): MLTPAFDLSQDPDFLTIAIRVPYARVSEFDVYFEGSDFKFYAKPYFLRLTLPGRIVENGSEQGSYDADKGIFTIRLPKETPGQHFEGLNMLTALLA

B1: Dys2S peptide (dyskerin residues 62-73) (peptide)
peptide: LNVRTTHYTPLA
B2: human Shq1 CS domain P22S with N-terminal 6XHis-tag (his-hCS(P22S)) (domain or fragment)
chain: MAHHHHHHVDDDDKMLTPAFDLSQDPDFLTIAIRVSYARVSEFDVYFEGSDFKFYAKPYFLRLTLPGRIVENGSEQGSYDADKGIFTIRLPKETPGQHFEGLNMLTALLA

Key:
[1] = biological target: T1, human Shq1 CS domain without 6XHis-tag …; test: NMR titration
crystal structure = biological target: the molecule itself; test: crystal structure

Binder | Kd [1] [µM] | binding result (crystal structure)
B1 | > 500 | 
B2 |  | binds
